Broadly, the Kd is a measure of binding affinity in units of concentration.

This is an account of results in paper PMC7582325, “How Human H1 Histone Recognizes DNA” (Molecules, 2020).

To fix the notation:
B1: 12-mer hetero-ON 32P probe (ssDNA)
DNA: TAGAAGATCAAA
modifications: 5' phosphate (32P)
B2: d(pC)8 (ssDNA)
DNA: CCCCCCCC
modifications: 5' phosphate
B3: d(pC)12 (ssDNA)
DNA: CCCCCCCCCCCC
modifications: 5' phosphate
B4: d(pA)10 (ssDNA)
DNA: AAAAAAAAAA
modifications: 5' phosphate
B5: d(pT)8 (ssDNA)
DNA: TTTTTTTT
modifications: 5' phosphate
B6: ODNcom1 (ssDNA)
DNA: GACGCGTCGCTGATCGTCTG
B7: d(pT)6 (ssDNA)
DNA: TTTTTT
modifications: 5' phosphate
B8: d(pC)10 (ssDNA)
DNA: CCCCCCCCCC
modifications: 5' phosphate
B9: ODN2 (ssDNA)
DNA: AGTGCCTGACCGTCGTCGAC
B10: d(pC)6 (ssDNA)
DNA: CCCCCC
modifications: 5' phosphate
B11: d(pT)20 (ssDNA)
DNA: TTTTTTTTTTTTTTTTTTTT
modifications: 5' phosphate
B12: d(pA)6 (ssDNA)
DNA: AAAAAA
modifications: 5' phosphate
B13: d(pA)8 (ssDNA)
DNA: AAAAAAAA
modifications: 5' phosphate
B14: 10-mer d(TAAAATCAAA) (ssDNA)
DNA: TAAAATCAAA
B15: d(pT)12 (ssDNA)
DNA: TTTTTTTTTTTT
modifications: 5' phosphate
B16: 12-mer hetero-ON, unlabeled competitor (ssDNA)
DNA: TAGAAGATCAAA
B17: d(pA)16 (ssDNA)
DNA: AAAAAAAAAAAAAAAA
modifications: 5' phosphate
B18: d(pA)5 (ssDNA)
DNA: AAAAA
modifications: 5' phosphate
B19: ODNcom2 (ssDNA)
DNA: GTCGACGACGGTCAGGCACT
B20: d(pA)4 (ssDNA)
DNA: AAAA
modifications: 5' phosphate
B21: d(pA)20 (ssDNA)
DNA: AAAAAAAAAAAAAAAAAAAA
modifications: 5' phosphate
B22: d(pT)4 (ssDNA)
DNA: TTTT
modifications: 5' phosphate
B23: 10-mer d(TCCCATCAAA) (ssDNA)
DNA: TCCCATCAAA
B24: d(pT)10 (ssDNA)
DNA: TTTTTTTTTT
modifications: 5' phosphate
B25: d(pA)12 (ssDNA)
DNA: AAAAAAAAAAAA
modifications: 5' phosphate
B26: ODN1 (ssDNA)
DNA: CAGACGATCAGCGACGCGTC
B27: 10-mer d(TATAATCTTA) (ssDNA)
DNA: TATAATCTTA
B28: d(pATG) (ssDNA)
DNA: ATG
modifications: 5' phosphate
B29: d(pC)5 (ssDNA)
DNA: CCCCC
modifications: 5' phosphate
B30: d(pT)5 (ssDNA)
DNA: TTTTT
modifications: 5' phosphate
B31: d(pT)16 (ssDNA)
DNA: TTTTTTTTTTTTTTTT
modifications: 5' phosphate
B32: ODN1 x ODNcom1 (dsDNA)
DNA 1: CAGACGATCAGCGACGCGTC
DNA 2: GACGCGTCGCTGATCGTCTG
B33: d(pA)20 x d(pT)20 (dsDNA)
DNA 1: AAAAAAAAAAAAAAAAAAAA
DNA 2: TTTTTTTTTTTTTTTTTTTT
modifications: 5' phosphate
B34: d(pA)16 x d(pT)16 (dsDNA)
DNA 1: AAAAAAAAAAAAAAAA
DNA 2: TTTTTTTTTTTTTTTT
modifications: 5' phosphate
B35: ODN2 x ODNcom2 (dsDNA)
DNA 1: AGTGCCTGACCGTCGTCGAC
DNA 2: GTCGACGACGGTCAGGCACT
B36: d(pA)12 x d(pT)12 (dsDNA)
DNA 1: AAAAAAAAAAAA
DNA 2: TTTTTTTTTTTT
modifications: 5' phosphate
B37: d(pA)3 + d(pT)3 mixture (mixed)
?: AAA
DNA: TTT
modifications: 5' phosphate
B38: d(pA)6 + d(pT)6 mixture (mixed)
?: AAAAAA
DNA: TTTTTT
modifications: 5' phosphate

For the first series, the target named is T1, H1° histone (human recombinant; H1 histone) (Homo sapiens, UniProt P07305).
T1 construct: gene H1-0; commercial recombinant human H1° (BioLabs M2501S), free histone
T1 sequence (P07305 2-194): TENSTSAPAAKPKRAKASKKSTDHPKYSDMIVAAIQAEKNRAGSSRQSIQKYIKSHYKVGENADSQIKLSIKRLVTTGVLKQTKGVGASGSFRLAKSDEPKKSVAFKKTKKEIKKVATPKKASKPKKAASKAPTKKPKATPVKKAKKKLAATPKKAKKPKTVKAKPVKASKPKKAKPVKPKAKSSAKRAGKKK
Nature of the series: competition with […]'-[…]TAGAAGATCAAA, nitrocellulose filter binding. The note with it: 20 mM Tris-HCl pH 7.5, 5 mM MgCl2, 1 mM EDTA, 20 °C, 0.3 mg/mL H1; Kd taken as I50 with 12 µM labelled 12-mer (its Kd); error not above 10–12%.
For `Nc1ncnc2c1ncn2[C@H]1C[C@H](O)[C@@H](COP(=O)(O)O)O1` [dAMP], the Kd is 16000 µM.
Turning to `Nc1ccn([C@H]2C[C@H](O)[C@@H](COP(=O)(O)O)O2)c(=O)n1` [dCMP], the Kd is 10000 µM.
As for `Cc1cn([C@H]2C[C@H](O)[C@@H](COP(=O)(O)O)O2)c(=O)[nH]c1=O` [dTMP], the Kd was 13000 µM.

In the next series the target is T2, histone H1° (H1.0) (Homo sapiens, UniProt P07305 1-194). Nature of the series: competition filter binding (I50). The conditions noted are these: 5' phosphate; 20 mM Tris-HCl pH 7.5, 5 mM MgCl2, 1 mM EDTA, 0.3 mg/mL H1, 1 h at 20 C; nitrocellulose filters; competition against 12.0 uM 32P 12-mer; mononucleotides ….
T2 sequence (P07305 whole entry): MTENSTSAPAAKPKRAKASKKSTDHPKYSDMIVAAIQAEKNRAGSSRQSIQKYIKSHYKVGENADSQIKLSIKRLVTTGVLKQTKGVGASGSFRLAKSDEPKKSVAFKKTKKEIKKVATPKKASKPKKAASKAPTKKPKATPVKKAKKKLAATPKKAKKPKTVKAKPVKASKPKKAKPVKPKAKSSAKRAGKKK
d(pC)2 displayed a Kd of 4400 µM.

Another series deals with T2, histone H1° (H1.0). The experiment in a line: filter binding; 5 mM Mg2+; 20 mM Tris-HCl pH 7.5, 5 mM MgCl2, 1 mM EDTA, 0.3 mg/mL H1, 1 h at 20 C; nitrocellulose filters; competition against 12.0 uM 32P 12-mer; mononucleotides dAMP/dCMP/dTMP not listed. The note with it: protein: commercial; label: 5'-32P.
B1: the affinity, expressed as Kd, was 12 µM.

The target of another series is T2, histone H1° (H1.0). The experiment in a line: competition filter binding (I50); 5 mM Mg2+; 20 mM Tris-HCl pH 7.5, 5 mM MgCl2, 1 mM EDTA, 0.3 mg/mL H1, 1 h at 20 C; nitrocellulose filters; competition against 12.0 uM 32P 12-mer; mononucleotides dAMP/dCMP/dTMP not listed. The conditions noted are these: protein: commercial.
The molecule B2 had a dissociation constant Kd of 34 µM.
The same measure, in the same setting: as for B3, the figure is 20 µM.
As for B4, binding was characterised by a dissociation constant (Kd) of 28 µM.
B5 gave a Kd of 76 µM.
Same read-out and setting: as for B6, the figure is 3.7 µM; as for B7, 48 µM; as for B8, 25 µM.
Still for that read-out and setting: to B9 belongs 3.8 µM.
Consider B10, for which the Kd was determined as 61 µM.
B11 showed a Kd of 4.6 µM.
The molecule B12 gave a Kd of 57 µM.
On the same count and under the same terms, as for B13, the figure is 48 µM; as for B14, 30 µM.
For the molecule B15, the Kd is 10 µM.
In turn, B16 registered a Kd of 12 µM.
In turn, B17 returned a Kd of 10 µM.
Consider B18, for which the Kd amounted to 70 µM.
The molecule B19 registered a Kd of 4.1 µM.
The molecule B20 had an equilibrium dissociation constant (Kd) of 240 µM.
Same read-out and setting: to B21 belongs 10 µM; to B22, 96 µM; to B23, 30 µM.
Same read-out and setting: as for B24, the figure is 25 µM; as for B25, 14 µM; as for B26, 4 µM.
Molecule B27 registered a dissociation constant (Kd) of 28 µM.
For B28, the Kd was found to be 1500 µM.
Same read-out and setting: as for B29, the figure is 300 µM; as for B30, 75 µM.
In the case of B31, the Kd was found to be 5 µM.

The same series, now with this note: protein: commercial; blunt.
B32 gave a dissociation constant (Kd) of 2.7 µM.
B33 showed a Kd of 3 µM.
Take B34: the affinity, expressed as Kd, was 3.8 µM.
In the case of B35, binding was put at a Kd of 2.9 µM.
In the case of B36, the affinity, expressed as Kd, was 7.5 µM.

Staying with this series, now noted: protein: commercial; mixture of complementary strands, not a preformed duplex.
On to B37, for which the Kd came to 1000 µM.
In the case of B38, the Kd stood at 55 µM.
